Results as given in patent US20100158922A1 (published 2010).

Target: T1, recombinant human IFNγ (human, UniProt P01579 24-166)
T1 chain: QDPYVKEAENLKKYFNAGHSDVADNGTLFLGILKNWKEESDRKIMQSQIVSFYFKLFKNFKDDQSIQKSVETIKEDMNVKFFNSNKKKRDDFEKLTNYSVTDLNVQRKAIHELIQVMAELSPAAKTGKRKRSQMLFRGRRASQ
Test: SPR (Biacore)

B1: NI-0501 (antibody, V domains shown)
VH: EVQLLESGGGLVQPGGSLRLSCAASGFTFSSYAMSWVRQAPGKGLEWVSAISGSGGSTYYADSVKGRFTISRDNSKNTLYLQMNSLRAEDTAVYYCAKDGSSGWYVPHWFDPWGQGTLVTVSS
VL: NFMLTQPHSVSESPGKTVTISCTRSSGSIASNYVQWYQQRPGSSPTTVIYEDNQRPSGVPDRFSGSIDSSSNSASLTISGLKTEDEADYYCQSYDGSNRWMFGGGTKLTVL
B1 was tested. Which Kd did it give?
The Kd was 732 pM.
